In the RNAGym collection of RNA variant scans (doi:10.1101/gr.219683.116):

B1: mRNA-splicing (parent)
chain: AGUUGCUGCUGGGAGCUCCAGCACAGUGAAAUGGACAGAAGGGCAGAGCAA

Variants of: B1
Assay: exon inclusion enrichment index; higher = more inclusion; WT1 exon 5 minigene, HEK293

Row | Variant | exon inclusion enrichment index
1 | AGUGACUUUUGGGAGCUCCAGCACAGUGAAAUGGACAGAAGGGCAGAGCAA | 0.369
2 | AGUUAACGAUGGGAGCUCCAGCACAGUGAAAUGGACAGAAGGGCAGAGCAA | 0.838
3 | AGUGGGCGCCGGGAGCUCCAGCACAGUGAAAUGGACAGAAGGGCAGAGCAA | 0.838
4 | AGUUAGGGAUGGGAGCUCCCUCACAGUGAAAUGGACAGAAGGGCAGAGCAA | 0.00104
5 | AGUUAGGGAUGGGAGCUCCCCCACAGUGAAAUGGACAGAAGGGCAGAGCAA | 0.000907
6 | AGUUAGGGAUGGGAGCUCCCACACAGUGAAAUGGACAGAAGGGCAGAGCAA | 0.00106
7 | AGUUAGAACCGGGAGCUCCAGCACAGUGAAAUGGACAGAAGGGCAGAGCAA | 0.237
8 | AGUGUUAUAUGGGAGCUCCAGCACAGUGAAAUGGACAGAAGGGCAGAGCAA | 0.0955
9 | AGUGAAAGAAGGGAGCUCCAGCACAGUGAAAUGGACAGAAGGGCAGAGCAA | 0.315
10 | AGUUAGCGAUGGGAGCUCCAGCACAGUGAAAUGGACAGAAGGGCAGAGCAA | 0.117
11 | AGUUAAGUAUGGGAGCUCCAGCACAGUGAAAUGGACAGAAGGGCAGAGCAA | 0.0264
12 | AGUGGGGGAUGGGAGCUCCAGCACAGUGAAAUGGACAGAAGGGCAGAGCAA | 0.0187
13 | AGUGUAAGAAGGGAGCUCCAGCACAGUGAAAUGGACAGAAGGGCAGAGCAA | 0.0439
14 | AGUUAGGGAUGGGAGCUCCGACACAGUGAAAUGGACAGAAGGGCAGAGCAA | 0.00277
15 | AGUUAGCGCCGGGAGCUCCAGCACAGUGAAAUGGACAGAAGGGCAGAGCAA | 0.952
16 | AGUGAUAUAUGGGAGCUCCAGCACAGUGAAAUGGACAGAAGGGCAGAGCAA | 0.156
17 | AGUUAAAGAAGGGAGCUCCAGCACAGUGAAAUGGACAGAAGGGCAGAGCAA | 0.214
18 | AGUGUCUUUUGGGAGCUCCAGCACAGUGAAAUGGACAGAAGGGCAGAGCAA | 0.267
19 | AGUGGCUUUUGGGAGCUCCAGCACAGUGAAAUGGACAGAAGGGCAGAGCAA | 0.193
20 | AGUUAGGGAUGGGAGCUCCAGCACAGUGAAAUGGACAGAAGGGCAGAGCAA | 0.00225
21 | AGUUAACACAGGGAGCUCCAGCACAGUGAAAUGGACAGAAGGGCAGAGCAA | 0.063
22 | AGUUAACACCGGGAGCUCCAGCACAGUGAAAUGGACAGAAGGGCAGAGCAA | 1.79
23 | AGUGGACGACGGGAGCUCCAGCACAGUGAAAUGGACAGAAGGGCAGAGCAA | 2.45
24 | AGUUAAGGAUGGGAGCUCCAGCACAGUGAAAUGGACAGAAGGGCAGAGCAA | 0.107
25 | AGUGUGCGCCGGGAGCUCCAGCACAGUGAAAUGGACAGAAGGGCAGAGCAA | 0.917
26 | AGUUAGCCAUGGGAGCUCCAGCACAGUGAAAUGGACAGAAGGGCAGAGCAA | 0.0805

Row | Variant | exon inclusion enrichment index
27 | AGUGGUUCUCGGGAGCUCCAGCACAGUGAAAUGGACAGAAGGGCAGAGCAA | 0.778
28 | AGUGAGCGCCGGGAGCUCCAGCACAGUGAAAUGGACAGAAGGGCAGAGCAA | 2.22
29 | AGUUAACGCCGGGAGCUCCAGCACAGUGAAAUGGACAGAAGGGCAGAGCAA | 2.4
30 | AGUGCCCACCGGGAGCUCCAGCACAGUGAAAUGGACAGAAGGGCAGAGCAA | 1.75
31 | AGUGCUAUAUGGGAGCUCCAGCACAGUGAAAUGGACAGAAGGGCAGAGCAA | 0.157
32 | AGUUAGGGAUGGGUACUCCAGCACAGUGAAAUGGACAGAAGGGCAGAGCAA | 0.000793
33 | AGUUAGGGAUGGGUCCUCCAGCACAGUGAAAUGGACAGAAGGGCAGAGCAA | 0.00121
34 | AGUUAGGGAUGGGUUCUCCAGCACAGUGAAAUGGACAGAAGGGCAGAGCAA | 0.000762
35 | AGUUACUGCUGGGAGCUCCAGCACAGUGAAAUGGACAGAAGGGCAGAGCAA | 0.039
36 | AGUGGACACAGGGAGCUCCAGCACAGUGAAAUGGACAGAAGGGCAGAGCAA | 0.348
37 | AGUUAGCGACGGGAGCUCCAGCACAGUGAAAUGGACAGAAGGGCAGAGCAA | 0.602
38 | AGUGCCUGCUGGGAGCUCCAGCACAGUGAAAUGGACAGAAGGGCAGAGCAA | 0.226
39 | AGUGACUGCUGGGAGCUCCAGCACAGUGAAAUGGACAGAAGGGCAGAGCAA | 0.101
40 | AGUGUCUGCUGGGAGCUCCAGCACAGUGAAAUGGACAGAAGGGCAGAGCAA | 0.105
41 | AGUUAGCACAGGGAGCUCCAGCACAGUGAAAUGGACAGAAGGGCAGAGCAA | 0.00406
42 | AGUUAGCACCGGGAGCUCCAGCACAGUGAAAUGGACAGAAGGGCAGAGCAA | 0.446
43 | AGUGCCUUUUGGGAGCUCCAGCACAGUGAAAUGGACAGAAGGGCAGAGCAA | 0.642
44 | AGUGGUAUAUGGGAGCUCCAGCACAGUGAAAUGGACAGAAGGGCAGAGCAA | 0.0761
45 | AGUGGCUGCUGGGAGCUCCAGCACAGUGAAAUGGACAGAAGGGCAGAGCAA | 0.0792
46 | AGUUAACUAUGGGAGCUCCAGCACAGUGAAAUGGACAGAAGGGCAGAGCAA | 0.165
47 | AGUUAGGGAUGGGAGCUCCGGCACAGUGAAAUGGACAGAAGGGCAGAGCAA | 0.00245
48 | AGUUAGGGAUGGGAGCUCCCGCACAGUGAAAUGGACAGAAGGGCAGAGCAA | 0.00932
49 | AGUUAAUGAUGGGAGCUCCAGCACAGUGAAAUGGACAGAAGGGCAGAGCAA | 0.239
50 | AGUGCACGACGGGAGCUCCAGCACAGUGAAAUGGACAGAAGGGCAGAGCAA | 2.46
51 | AGUGCACACAGGGAGCUCCAGCACAGUGAAAUGGACAGAAGGGCAGAGCAA | 0.0964
